According to PMC12404239:

Tests used:
[1] = target: influenza B haemagglutinin (HA) B/Maryland/15/16 (influenza B virus (B/Maryland/15/16)); experiment: […], running buffer TBS, […]
[2] = target: SARS-CoV-2 spike glycoprotein (S) (SARS-CoV-2) (UniProt P0DTC2); experiment: […], running buffer TBS, […]

Row | Substance | stoichiometry N [1] | stoichiometry N [2]
1 | influenza B haemagglutinin (HA) B/Maryland/15/16 (natural protein) | 3 | –
2 | SARS-CoV-2 spike glycoprotein (S) (from UniProt P0DTC2 14-1273) (natural protein) | – | 3
